T1: IL-2Rβ/γc complex (intermediate affinity receptor) on primary human CD8+ T cells (human, UniProt P14784 27-551; P31785 23-369)
T1 sequence (looked up) 1: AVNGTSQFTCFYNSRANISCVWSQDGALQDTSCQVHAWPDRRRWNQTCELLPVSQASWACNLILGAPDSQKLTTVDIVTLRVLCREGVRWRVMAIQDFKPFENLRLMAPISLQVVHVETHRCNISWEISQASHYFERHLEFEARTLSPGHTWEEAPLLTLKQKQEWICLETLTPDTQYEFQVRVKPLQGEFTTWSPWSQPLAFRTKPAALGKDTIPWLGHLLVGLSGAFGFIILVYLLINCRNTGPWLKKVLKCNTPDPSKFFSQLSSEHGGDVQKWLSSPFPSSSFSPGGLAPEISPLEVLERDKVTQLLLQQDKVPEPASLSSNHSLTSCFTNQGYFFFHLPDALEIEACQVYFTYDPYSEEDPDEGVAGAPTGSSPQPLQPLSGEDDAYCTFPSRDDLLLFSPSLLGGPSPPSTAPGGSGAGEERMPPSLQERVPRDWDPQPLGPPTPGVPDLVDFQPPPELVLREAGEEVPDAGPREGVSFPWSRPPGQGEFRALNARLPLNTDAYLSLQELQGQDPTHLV
T1 sequence (looked up) 2: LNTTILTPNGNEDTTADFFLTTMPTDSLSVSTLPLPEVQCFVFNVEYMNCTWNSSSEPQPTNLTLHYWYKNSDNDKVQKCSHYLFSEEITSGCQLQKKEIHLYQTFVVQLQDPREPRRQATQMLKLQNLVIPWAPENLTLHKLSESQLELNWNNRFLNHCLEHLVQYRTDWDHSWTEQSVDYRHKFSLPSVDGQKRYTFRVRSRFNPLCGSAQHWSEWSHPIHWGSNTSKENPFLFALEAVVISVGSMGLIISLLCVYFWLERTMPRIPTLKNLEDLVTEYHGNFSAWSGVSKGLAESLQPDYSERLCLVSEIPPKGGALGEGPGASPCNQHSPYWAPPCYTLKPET


Target: T1, IL-2Rβ/γc complex (intermediate …)
Assay: cell-based or functional assay

Row | Potency reduction, pSTAT5, human primary CD8+ T [fold] | pSTAT5 EC50, human primary CD8+ T [nM] | Binder
1 | 11.3 | 86.2 | W3XX115-T2U0.E44-44.uIgG4V322 (Fc fusion) APTSSSTKKTQLQLEHLLLDLQMILNGINNYKNPKLTRMLTFKFYMPKKATGLKHLQCLEEELKPLEEVLNLAQSKNFHLRPRDLISNINVIVLELKGSETTFMCEYADETATIVEFLNRWITFCQSIIESKYGPPCPPCPAPEAAGGPSVFLFPPKPKDTLMISRTPEVTCVVVDVSQEDPEVQFNWYVDGVEVHNAKTKPREEQFNSTYRVVSVLTVLHQDWLNGKEYKCKVSNKGLPSSIEKTISKAKGQPREPQVYTLPPCQEEMTKNQVSLWCLVKGFYPSDIAVEWESNGQPENNYKTTPPVLDSDGSFFLYSRLTVDKSRWQEGNVFSCSVMHEALHNHYTQKSLSLSLG heavy: EIQLQQSGPELVKPGASVKVSCKASGYSFTDYNMYWVKQSHGESLEWIGYIDPYNGGTRYNQKFKGKATLTVDKSSSTAFMHLNSLTSEDSAVYYCARNGHWDGAWFAYWGQGTLVTVSAASTKGPSVFPLAPCSRSTSESTAALGCLVKDYFPEPVTVSWNSGALTSGVHTFPAVLQSSGLYSLSSVVTVPSSSLGTKTYTCNVDHKPSNTKVDKRVESKYGPPCPPCPAPEAAGGPSVFLFPPKPKDTLMISRTPEVTCVVVDVSQEDPEVQFNWYVDGVEVHNAKTKPREEQFNSTYRVVSVLTVLHQDWLNGKEYKCKVSNKGLPSSIEKTISKAKGQPREPQVCTLPPSQEEMTKNQVSLSCAVKGFYPSDIAVEWESNGQPENNYKTTPPVLDSDGSFFLVSRLTVDKSRWQEGNVFSCSVMHEALHNHYTQKSLSLSLG light: DIQMNQSPSSLSASLGDTITITCHASQNINVWLSWYQQKPGNIPKLLIYKASNLHTGVPSRFSGSRSGTGFTLTISSLQPEDIATYYCHQGQSYPFTFGSGTKLEIKRTVAAPSVFIFPPSDEQLKSGTASVVCLLNNFYPREAKVQWKVDNALQSGNSQESVTEQDSKDSTYSLSSTLTLSKADYEKHKVYACEVTHQGLSSPVTKSFNRGEC
2 | 27.6 | 211 | W3XX115-T2U0.E44-47.uIgG4V322 (Fc fusion) APTSSSTKKTQLQLEHLLLDLQMILNGINNYKNPKLTRMLTFKFYMPKKATELKHLQCLEEELKPLEEVLNLAQSKNFHLRYRDLISNINVIVLELKGSETTFMCEYADETATIVEFLNRWITFCQSIIESKYGPPCPPCPAPEAAGGPSVFLFPPKPKDTLMISRTPEVTCVVVDVSQEDPEVQFNWYVDGVEVHNAKTKPREEQFNSTYRVVSVLTVLHQDWLNGKEYKCKVSNKGLPSSIEKTISKAKGQPREPQVYTLPPCQEEMTKNQVSLWCLVKGFYPSDIAVEWESNGQPENNYKTTPPVLDSDGSFFLYSRLTVDKSRWQEGNVFSCSVMHEALHNHYTQKSLSLSLG heavy: EIQLQQSGPELVKPGASVKVSCKASGYSFTDYNMYWVKQSHGESLEWIGYIDPYNGGTRYNQKFKGKATLTVDKSSSTAFMHLNSLTSEDSAVYYCARNGHWDGAWFAYWGQGTLVTVSAASTKGPSVFPLAPCSRSTSESTAALGCLVKDYFPEPVTVSWNSGALTSGVHTFPAVLQSSGLYSLSSVVTVPSSSLGTKTYTCNVDHKPSNTKVDKRVESKYGPPCPPCPAPEAAGGPSVFLFPPKPKDTLMISRTPEVTCVVVDVSQEDPEVQFNWYVDGVEVHNAKTKPREEQFNSTYRVVSVLTVLHQDWLNGKEYKCKVSNKGLPSSIEKTISKAKGQPREPQVCTLPPSQEEMTKNQVSLSCAVKGFYPSDIAVEWESNGQPENNYKTTPPVLDSDGSFFLVSRLTVDKSRWQEGNVFSCSVMHEALHNHYTQKSLSLSLG light: DIQMNQSPSSLSASLGDTITITCHASQNINVWLSWYQQKPGNIPKLLIYKASNLHTGVPSRFSGSRSGTGFTLTISSLQPEDIATYYCHQGQSYPFTFGSGTKLEIKRTVAAPSVFIFPPSDEQLKSGTASVVCLLNNFYPREAKVQWKVDNALQSGNSQESVTEQDSKDSTYSLSSTLTLSKADYEKHKVYACEVTHQGLSSPVTKSFNRGEC
3 | 7.6 | 58.4 | W3XX115-T2U0.E44-46.uIgG4V322 (Fc fusion) APTSSSTKKTQLQLEHLLLDLQMILNGINNYKNPKLTRMLTFKFYMPKKATELKHLQCLEEELKPLEEVLNLAQSKNGHLRPRDLISNINVIVLELKGSETTFMCEYADETATIVEFLNRWITFCQSIIESKYGPPCPPCPAPEAAGGPSVFLFPPKPKDTLMISRTPEVTCVVVDVSQEDPEVQFNWYVDGVEVHNAKTKPREEQFNSTYRVVSVLTVLHQDWLNGKEYKCKVSNKGLPSSIEKTISKAKGQPREPQVYTLPPCQEEMTKNQVSLWCLVKGFYPSDIAVEWESNGQPENNYKTTPPVLDSDGSFFLYSRLTVDKSRWQEGNVFSCSVMHEALHNHYTQKSLSLSLG heavy: EIQLQQSGPELVKPGASVKVSCKASGYSFTDYNMYWVKQSHGESLEWIGYIDPYNGGTRYNQKFKGKATLTVDKSSSTAFMHLNSLTSEDSAVYYCARNGHWDGAWFAYWGQGTLVTVSAASTKGPSVFPLAPCSRSTSESTAALGCLVKDYFPEPVTVSWNSGALTSGVHTFPAVLQSSGLYSLSSVVTVPSSSLGTKTYTCNVDHKPSNTKVDKRVESKYGPPCPPCPAPEAAGGPSVFLFPPKPKDTLMISRTPEVTCVVVDVSQEDPEVQFNWYVDGVEVHNAKTKPREEQFNSTYRVVSVLTVLHQDWLNGKEYKCKVSNKGLPSSIEKTISKAKGQPREPQVCTLPPSQEEMTKNQVSLSCAVKGFYPSDIAVEWESNGQPENNYKTTPPVLDSDGSFFLVSRLTVDKSRWQEGNVFSCSVMHEALHNHYTQKSLSLSLG light: DIQMNQSPSSLSASLGDTITITCHASQNINVWLSWYQQKPGNIPKLLIYKASNLHTGVPSRFSGSRSGTGFTLTISSLQPEDIATYYCHQGQSYPFTFGSGTKLEIKRTVAAPSVFIFPPSDEQLKSGTASVVCLLNNFYPREAKVQWKVDNALQSGNSQESVTEQDSKDSTYSLSSTLTLSKADYEKHKVYACEVTHQGLSSPVTKSFNRGEC
4 | 31.4 | 240 | W3XX115-T2U0.E44-45.uIgG4V322 (Fc fusion) APTSSSTKKTQLQLEHLLLDLQMILNGINNYKNPKLTRMLTFKFYMPKKATELKHLQCLEEELKPLEEVLNLAQSRNFHLRPRDLISNINVIVLELKGSETTFMCEYADETATIVEFLNRWITFCQSIIESKYGPPCPPCPAPEAAGGPSVFLFPPKPKDTLMISRTPEVTCVVVDVSQEDPEVQFNWYVDGVEVHNAKTKPREEQFNSTYRVVSVLTVLHQDWLNGKEYKCKVSNKGLPSSIEKTISKAKGQPREPQVYTLPPCQEEMTKNQVSLWCLVKGFYPSDIAVEWESNGQPENNYKTTPPVLDSDGSFFLYSRLTVDKSRWQEGNVFSCSVMHEALHNHYTQKSLSLSLG heavy: EIQLQQSGPELVKPGASVKVSCKASGYSFTDYNMYWVKQSHGESLEWIGYIDPYNGGTRYNQKFKGKATLTVDKSSSTAFMHLNSLTSEDSAVYYCARNGHWDGAWFAYWGQGTLVTVSAASTKGPSVFPLAPCSRSTSESTAALGCLVKDYFPEPVTVSWNSGALTSGVHTFPAVLQSSGLYSLSSVVTVPSSSLGTKTYTCNVDHKPSNTKVDKRVESKYGPPCPPCPAPEAAGGPSVFLFPPKPKDTLMISRTPEVTCVVVDVSQEDPEVQFNWYVDGVEVHNAKTKPREEQFNSTYRVVSVLTVLHQDWLNGKEYKCKVSNKGLPSSIEKTISKAKGQPREPQVCTLPPSQEEMTKNQVSLSCAVKGFYPSDIAVEWESNGQPENNYKTTPPVLDSDGSFFLVSRLTVDKSRWQEGNVFSCSVMHEALHNHYTQKSLSLSLG light: DIQMNQSPSSLSASLGDTITITCHASQNINVWLSWYQQKPGNIPKLLIYKASNLHTGVPSRFSGSRSGTGFTLTISSLQPEDIATYYCHQGQSYPFTFGSGTKLEIKRTVAAPSVFIFPPSDEQLKSGTASVVCLLNNFYPREAKVQWKVDNALQSGNSQESVTEQDSKDSTYSLSSTLTLSKADYEKHKVYACEVTHQGLSSPVTKSFNRGEC

— patent US20260232769A1 (WUXI BIOLOGICS IRELAND, published 2026)
